# Legend:
# [1] = biological target: T1, SLP on cells of C. difficile strain BI-1 (ribotype 027) (Clostridioides difficile BI-1 (ribotype …, UniProt A0A9R0BMB3, strain)); assay: ELISA; whole cell ELISA: formalin-fixed C. difficile cells coated on MaxiSorp plates, His6-tagged VHH at 10 μg/ml in PBS-T, 37 °C, 1 h, detected with anti-His6-HRP; details: one partner purified
# T1 construct: LMW subunit of the surface layer protein (from the precursor SlpA), C. difficile strain BI-1, ribotype 027; HMW subunit of the surface layer protein (from the precursor SlpA), C. difficile strain BI-1, ribotype 027; Whole cells were the antigen; source: endogenous, on formalin-fixed C. difficile BI-1 cells
# [2] = biological target: T2, SLP on cells of C. difficile strain 196 (ribotype 027) (Clostridioides difficile 196 (ribotype …, UniProt A0A9R0BMB3, strain)); assay: as above; details: one partner purified
# T2 construct: LMW subunit of the surface layer protein (from the precursor SlpA), C. difficile strain 196, ribotype 027; HMW subunit of the surface layer protein (from the precursor SlpA), C. difficile strain 196, ribotype 027; Whole cells were the antigen; source: endogenous, on formalin-fixed C. difficile 196 cells
# [3] = biological target: T3, SLP on cells of C. difficile strain BI-7 (ribotype 027) (Clostridioides difficile BI-7 (ribotype …, UniProt A0A9R0BMB3, strain)); assay: as above; details: one partner purified
# T3 construct: LMW subunit of the surface layer protein (from the precursor SlpA), C. difficile strain BI-7, ribotype 027; HMW subunit of the surface layer protein (from the precursor SlpA), C. difficile strain BI-7, ribotype 027; Whole cells were the antigen; source: endogenous, on formalin-fixed C. difficile BI-7 cells
# [4] = biological target: T4, SLP on cells of C. difficile strain R20291 (ribotype 027) (Clostridioides difficile R20291 …, UniProt A0A9R0BMB3, strain); assay: as above; details: one partner purified
# T4 construct: LMW subunit of the surface layer protein (from the precursor SlpA), C. difficile strain R20291, ribotype 027; HMW subunit of the surface layer protein (from the precursor SlpA), C. difficile strain R20291, ribotype 027; Whole cells were the antigen; source: endogenous, on formalin-fixed C. difficile R20291 cells
# [5] = biological target: T5, QCD-32g58 SLP (surface layer protein of C. difficile strain QCD-32g58, HMW and LMW subunits) (Clostridioides difficile QCD-32g58 …, UniProt A0A9R0BMB3, strain); assay: SPR; Biacore 3000; SEC-purified QCD-32g58 SLP amine-coupled to a CM5 chip, VHH monomer fractions injected at various concentrations; 25 °C, 10 mM HEPES pH 7.4, 150 mM NaCl, 3 mM EDTA, 0.005 % P20; KD by steady-state analysis; details: both partners purified
# T5 construct: low-molecular-weight (LMW) subunit of the surface layer protein, cut from the precursor SlpA by Cwp84, C. difficile strain QCD-32g58 (ribotype 027); predicted mass 33.9 kDa; high-molecular-weight (HMW) subunit of the surface layer protein, cut from the precursor SlpA by Cwp84, C. difficile strain QCD-32g58 (ribotype 027); predicted mass 44.2 kDa; Both subunits come from one precursor, SlpA; also …
# [6] = biological target: T6, 630 SLP (surface layer protein of C. difficile strain 630, HMW and LMW subunits) (Clostridioides difficile 630 (ribotype …, UniProt Q183M8, strain)); assay: SPR; Biacore 3000; 630 SLP immobilised on a CM5 chip, VHHs injected at various concentrations; data not shown; details: both partners purified
# T6 construct: low-molecular-weight (LMW) subunit of the surface layer protein, cut from the precursor SlpA by Cwp84, C. difficile strain 630 (ribotype 012); predicted mass 34.2 kDa; high-molecular-weight (HMW) subunit of the surface layer protein, cut from the precursor SlpA by Cwp84, C. difficile strain 630 (ribotype 012); predicted mass 39.5 kDa; Both subunits come from one precursor, SlpA; source: purified …
# [7] = biological target: T7, QCD-32g58 LMW SLP (low-molecular-weight subunit of the QCD-32g58 surface layer protein) (Clostridioides difficile QCD-32g58 …, UniProt A0A9R0BMB3, strain); assay: SPR; Biacore 3000; SEC-purified QCD-32g58 LMW SLP subunit amine-coupled to a CM5 chip; single-concentration screen, 200 nM VHH; 25 °C, 10 mM HEPES pH 7.4, 150 mM NaCl, 3 mM EDTA, 0.005 % P20; details: both partners purified
# T7 construct: low-molecular-weight (LMW) subunit of the surface layer protein, cut from the precursor SlpA by Cwp84, C. difficile strain QCD-32g58 (ribotype 027); predicted mass 33.9 kDa; also called QCD-32g58 SLP LMW subunit; LMW subunit; source: purified from C. difficile QCD-32g58 (low-pH glycine extraction, minor SEC peak at about 15 ml); in the Western blot the LMW band of the extracted SLPs
# [8] = biological target: QCD-32g58 LMW SLP (low-molecular-weight subunit of the QCD-32g58 surface layer protein) (Clostridium difficile strain QCD-32g58); assay: as above
# [9] = biological target: 630 SLP (surface layer protein of C. difficile strain 630, HMW and LMW subunits) (Clostridium difficile strain 630); assay: SPR; Biacore 3000; 630 SLP immobilised on a CM5 chip, VHHs injected at various concentrations; data not shown
Binder,binding result [1],binding result [2],binding result [3],binding result [4],Kd [5],binding result [6],Kd [7],koff [7],kon [7],Kd [8],koff [8],kon [8],Kd [9]
"SLP_VHH50 (VHH, From an immune llama phage display library panned on QCD-32g58 SLP; source: monomeric SEC fractions for SPR; not shown: His6, C-terminal, kept) VHH: QVKLEESGGGLVQPGGSLRLSCAASGFTLDYYTIGWFRQAPGKEREGVACISSDDRTYYVDSVKGRFAISRDNVKNTVYLQMNNLKPEDTAVYYCASKESVFLIATMKGCAPGHDDYWGQGTQVTVSS",binds,binds,binds,binds,75 nM,no binding,14 nM,0.0027 s⁻¹,190000 M⁻¹ s⁻¹,,,,
"SLP_VHH22 (VHH, From an immune llama phage display library panned on QCD-32g58 SLP; source: monomeric SEC fractions for SPR; not shown: His6, C-terminal, kept) VHH: QVQLVESGGGLVQPGGSLRLSCAASGFTLDSYAIGWFRQAPGKEHEGISCISSNGGSTYYTDSVKGRFTISRDNAKNTVYLQMNSLESEDSAVYYCATVRRCSSLDMALGALATRTKGYDYWGQGTQVTVSS",binds,binds,binds,binds,180 nM,no binding,8 nM,0.0011 s⁻¹,130000 M⁻¹ s⁻¹,,,,
"SLP_VHH26 (VHH, From an immune llama phage display library panned on QCD-32g58 SLP; source: monomeric SEC fractions for SPR; not shown: His6, C-terminal, kept) VHH: QVKLEESGGGLVQAGGSLRLSCAASGRTFTNYAMAWFRQASGKEREFVAIISQSGGRTYYGDSVKGRFTISRDNAKNTVYLQLNSLQPEDTGVYYCAAGDSPYYYSRSRYDLWGPGTQVTVSS",binds,binds,binds,binds,580 nM,,,,,460 nM,0.097 s⁻¹,210000 M⁻¹ s⁻¹,2000 nM
